From patent publication US20040254354A1 (INHIBITEX, published 2004)

T1: human fibrinogen (human, UniProt P02671 20-629; P02675 31-491; P02679 27-437)
T1 construct: Bought (Chromogenix for ELISA and blots; Calbiochem, plasminogen free, for clumping assays); The plate adherence paragraphs say only 'fibrinogen'; also called solid phase fibrinogen; immobilized fibrinogen
T1 sequence 1: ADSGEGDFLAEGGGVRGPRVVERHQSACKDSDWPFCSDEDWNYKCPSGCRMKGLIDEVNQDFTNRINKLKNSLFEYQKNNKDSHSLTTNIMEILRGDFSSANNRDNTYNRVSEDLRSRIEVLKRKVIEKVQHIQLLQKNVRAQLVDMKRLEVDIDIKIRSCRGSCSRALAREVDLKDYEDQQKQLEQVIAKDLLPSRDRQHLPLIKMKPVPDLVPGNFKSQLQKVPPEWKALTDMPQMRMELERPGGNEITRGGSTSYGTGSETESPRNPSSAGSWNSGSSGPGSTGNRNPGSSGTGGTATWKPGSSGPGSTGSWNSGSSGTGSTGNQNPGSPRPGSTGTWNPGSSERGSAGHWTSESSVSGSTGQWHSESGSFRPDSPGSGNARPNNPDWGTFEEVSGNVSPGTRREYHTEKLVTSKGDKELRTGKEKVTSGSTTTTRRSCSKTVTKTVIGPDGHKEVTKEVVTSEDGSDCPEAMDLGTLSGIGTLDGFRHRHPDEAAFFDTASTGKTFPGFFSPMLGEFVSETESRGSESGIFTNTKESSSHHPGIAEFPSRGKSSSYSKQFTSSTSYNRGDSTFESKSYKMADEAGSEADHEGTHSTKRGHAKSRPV
T1 sequence 2: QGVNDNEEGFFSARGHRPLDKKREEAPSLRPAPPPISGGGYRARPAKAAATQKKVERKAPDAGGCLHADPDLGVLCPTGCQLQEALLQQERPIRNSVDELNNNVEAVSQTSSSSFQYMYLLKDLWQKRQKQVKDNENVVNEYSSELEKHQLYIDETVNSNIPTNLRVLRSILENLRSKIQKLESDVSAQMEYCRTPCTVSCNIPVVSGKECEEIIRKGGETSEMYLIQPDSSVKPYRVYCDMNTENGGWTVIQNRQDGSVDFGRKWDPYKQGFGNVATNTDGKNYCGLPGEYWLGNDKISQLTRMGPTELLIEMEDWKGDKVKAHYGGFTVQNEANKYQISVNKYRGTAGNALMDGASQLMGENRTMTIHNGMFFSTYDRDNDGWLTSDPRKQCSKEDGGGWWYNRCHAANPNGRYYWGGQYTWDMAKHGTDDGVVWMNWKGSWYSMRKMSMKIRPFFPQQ
T1 sequence 3: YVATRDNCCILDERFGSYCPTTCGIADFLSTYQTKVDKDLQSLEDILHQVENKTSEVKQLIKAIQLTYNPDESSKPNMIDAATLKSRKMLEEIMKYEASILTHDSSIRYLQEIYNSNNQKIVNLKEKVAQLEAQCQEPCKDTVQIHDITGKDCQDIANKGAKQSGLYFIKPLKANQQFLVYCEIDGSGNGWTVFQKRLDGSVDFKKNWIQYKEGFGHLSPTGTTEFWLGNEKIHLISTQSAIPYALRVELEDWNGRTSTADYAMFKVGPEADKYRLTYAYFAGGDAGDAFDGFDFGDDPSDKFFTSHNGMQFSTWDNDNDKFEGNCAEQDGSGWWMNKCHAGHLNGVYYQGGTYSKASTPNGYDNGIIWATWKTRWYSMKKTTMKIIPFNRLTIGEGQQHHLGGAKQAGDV

B1: biotinylated recombinant region A from ClfA (other)
chain: SENSVTQSDSASNESKSNDSSSVSAAPKTDDTNVSDTKTSSNTNNGETSVAQNPAQQETTQSSSTNATTEETPVTGEATTTTTNQANTPATTQSSNTNAEELVNQTSNETTFNDTNTVSSVNSPQNSTNAENVSTTQDTSTEATPSNNESAPQSTDASNKDVVNQAVNTSAPRMRAFSLAAVAADAPAAGTDITNQLTNVTVGIDSGTTVYPHQAGYVKLNYGFSVPNSAVKGDTFKITVPKELNLNGVTSTAKVPPIMAGDQVLANGVIDSDGNVIYTFTDYVNTKDDVKATLTMPAYIDPENVKKTGNVTLATGIGSTTANKTVLVDYEKYGKFYNLSIKGTIDQIDKTNNTYRQTIYVNPSGDNVIAPVLTGNLKPNTDSNALIDQQNTSIKVYKVDNAADLSESYFVNPENFEDVTNSVNITFPNPNQYKVEFNTPDDQITTPYIVVVNGHIDPNSKGDLALRSTLYGYNSNIIWRSMSWDNEVAFNNGSGSGDGIDKPVVPEQPDEPGEIEPIPE
modifications: biotinylated (sites not given)
notes: domain: region A; also called ClfA region A; biotinylated ClfA
B2: γ chain of human fibrinogen (ligand)
chain: T1 sequence 3
notes: also called gamma-chain of fibrinogen; y chain of fibrinogen

Assays:
human fibrinogen (human) = human fibrinogen (human) (UniProt P02671); test: cell-based or functional assay
bovine serum albumin = molecular target: T2, bovine serum albumin (bovine, UniProt P02769 25-607); test: direct ELISA, biotinylated region A on BSA-coated plates
T2 construct: also called BSA

human fibrinogen = molecular target: T1, human fibrinogen; test: direct ELISA, biotinylated region A on fibrinogen-coated plates
[1] = molecular target: B1; test: Western affinity blot of human fibrinogen (FIG. 22)

T2 sequence (P02769 25-607 limits assumed): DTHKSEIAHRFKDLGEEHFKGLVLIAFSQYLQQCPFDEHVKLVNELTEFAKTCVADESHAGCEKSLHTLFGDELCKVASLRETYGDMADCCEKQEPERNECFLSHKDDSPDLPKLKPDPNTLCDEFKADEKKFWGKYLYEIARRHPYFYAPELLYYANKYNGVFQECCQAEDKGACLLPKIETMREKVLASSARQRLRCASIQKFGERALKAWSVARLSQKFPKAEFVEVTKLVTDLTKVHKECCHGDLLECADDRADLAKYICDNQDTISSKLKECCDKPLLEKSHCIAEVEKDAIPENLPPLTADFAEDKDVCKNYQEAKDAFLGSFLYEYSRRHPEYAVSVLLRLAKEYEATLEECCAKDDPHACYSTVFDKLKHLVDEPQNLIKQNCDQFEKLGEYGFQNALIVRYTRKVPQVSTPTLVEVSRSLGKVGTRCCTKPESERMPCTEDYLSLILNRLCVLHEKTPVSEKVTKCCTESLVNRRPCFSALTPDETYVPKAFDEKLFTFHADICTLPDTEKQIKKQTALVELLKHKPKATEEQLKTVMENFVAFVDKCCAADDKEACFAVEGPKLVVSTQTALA

For “ClfA (native, on S. aureus Newman cells) (from UniProt Q53653 40-899)”, the Clumping titer, µg/ml fibrinogen; clfB mutant, exponential phase (µg/ml fibrinogen) (human fibrinogen (human)) was 1.95, the Clumping titer, µg/ml fibrinogen; clfB mutant, stationary phase (µg/ml fibrinogen) (human fibrinogen (human)) was 0.98 and the Clumping titer, µg/ml fibrinogen; wild-type, stationary phase (µg/ml fibrinogen) (human fibrinogen (human)) was 0.98.

B1 was tested, and the binding result (bovine serum albumin) was “no binding” and the “binding at the highest concentration, relative to ClfB region A” value (human fibrinogen) was about 50 % greater than ClfB.

B2: binds [1].
